From the Immune Epitope Database (IEDB) come the findings set out here.

The target of one assay is HLA-C*14:02. In words: IEDB peptide-MHC binding, purified MHC/direct/fluorescence; filed as Kd, often an IC50 or EC50 that approximates it; ≥ and ≤ were set here for values at or beyond the usual limits of such assays.
For the next assay, the target named is HLA-B*51:01. Described as above.
The target of assay [1] is HLA-B*07:02. The description is as above.
Assay [2] concerns the target HLA-A*26:02. The description is as above.
In the next assay the target is HLA-A*02:06. In words: IEDB peptide-MHC binding, purified MHC/competitive/fluorescence; filed as Kd, often an IC50 or EC50 that approximates it; ≥ and ≤ were set here for values at or beyond the usual limits of such assays. The settings on record: source organism: Vibrio vulnificus YJ016.
In assay [3] the target is HLA-A*30:01. The assay is described as above. The settings on record: source organism: Vibrio vulnificus YJ016.
Assay [4] addresses HLA-A*02:01. The assay is described as above. To be noted: source organism: Vibrio vulnificus YJ016.
Assay [5] deals with HLA-B*39:01. The assay is described as above. To be noted: source organism: Vibrio vulnificus YJ016.
The target of another assay is HLA-A*02:03. The assay is described as above. To be noted: source organism: Vibrio vulnificus YJ016.
Assay [6] deals with HLA-B*07:02. The assay is described as above. The settings on record: source organism: Vibrio vulnificus YJ016.
The target in assay [7] is HLA-B*15:17. Put plainly: IEDB peptide-MHC binding, purified MHC/direct/fluorescence; filed as Kd, often an IC50 or EC50 that approximates it; ≥ and ≤ were set here for values at or beyond the usual limits of such assays. The settings on record: source organism: Vibrio vulnificus YJ016.
The target of assay [8] is HLA-A*31:01. The assay is described as above. To be noted: source organism: Vibrio vulnificus YJ016.
For the next assay, the target named is HLA-A*02:11. The description is as above. The settings on record: source organism: Vibrio vulnificus YJ016.
Assay [9] concerns the target HLA-A*68:02. Described as above. The settings on record: source organism: Vibrio vulnificus YJ016.
The target in a further assay is HLA-B*08:01. The description is as above.
The target in assay [10] is HLA-B*18:01. Described as above. The settings on record: source organism: Vibrio vulnificus YJ016.
For a further assay, the target named is HLA-A*69:01. Described as above.
Assay [11] addresses HLA-A*11:01. The description is as above. To be noted: source organism: Vibrio vulnificus YJ016.
Assay [12] concerns the target HLA-B*57:01. The assay is described as above.
A further assay addresses HLA-A*01:01. The description is as above.
Another assay has as its target HLA-A*26:03. Described as above.
For a further assay, the target named is HLA-B*58:01. The assay is described as above.
The target in assay [13] is HLA-A*31:01. In words: IEDB peptide-MHC binding, purified MHC/competitive/fluorescence; filed as Kd, often an IC50 or EC50 that approximates it; ≥ and ≤ were set here for values at or beyond the usual limits of such assays.
The target of assay [14] is HLA-A*68:02. The description is as above.
Assay [15] deals with HLA-B*18:01. Described as above.
Assay [16] addresses HLA-B*15:01. The assay is described as above. The settings on record: source organism: Variola major virus.
Assay [17] deals with HLA-A*26:02. The description is as above.
Assay [18] addresses HLA-A*11:01. The description is as above.
In another assay the target is HLA-C*15:02. Put plainly: IEDB peptide-MHC binding, purified MHC/direct/fluorescence; filed as Kd, often an IC50 or EC50 that approximates it; ≥ and ≤ were set here for values at or beyond the usual limits of such assays. The settings on record: source organism: Variola major virus.
In another assay the target is HLA-B*15:09. The description is as above.
Assay [19] concerns the target HLA-A*30:01. The assay is described as above. To be noted: source organism: Variola virus.
The target of a further assay is HLA-B*08:03. Described as above.
The target of assay [20] is HLA-A*02:01. Described as above.
The target of a further assay is HLA-A*26:01. The description is as above. The settings on record: source organism: Variola virus.
Assay [21] has as its target HLA-B*39:01. Described as above. To be noted: source organism: Variola virus.
Another assay addresses HLA-A*24:03. Described as above.
Assay [22] deals with HLA-B*15:17. Put plainly: IEDB peptide-MHC binding, purified MHC/competitive/fluorescence; filed as Kd, often an IC50 or EC50 that approximates it; ≥ and ≤ were set here for values at or beyond the usual limits of such assays. The settings on record: source organism: Influenza A virus H3N2.
Assay [23] addresses HLA-B*57:01. The description is as above. The settings on record: source organism: Influenza A virus H3N2.
The next assay addresses HLA-B*35:01. Described as above. To be noted: source organism: Influenza A virus H3N2.
Another assay addresses HLA-A*03:01. Put plainly: IEDB peptide-MHC binding, purified MHC/direct/fluorescence; filed as Kd, often an IC50 or EC50 that approximates it; ≥ and ≤ were set here for values at or beyond the usual limits of such assays. To be noted: source organism: Influenza A virus (A/Swine/Italy/25823/94(H3N2)).
The target in the next assay is HLA-B*27:05. The assay is described as above. The settings on record: source organism: Influenza A virus (A/Swine/Italy/25823/94(H3N2)).
The target of assay [24] is HLA-B*15:01. The description is as above.
A further assay concerns the target HLA-B*08:02. Described as above. To be noted: source organism: Influenza A virus(A/swine/Shandong/fNY/2003(H9N2)).
Setting [25] is: source organism: Giardia lamblia ATCC 50803.
Setting [26] is: source organism: Vibrio vulnificus YJ016.
The mark [27] stands for this setting: source organism: Variola major virus.
The mark [28] stands for this setting: source organism: Buffalopox virus.
[29] abbreviates: source organism: Influenza A virus H3N2.
[30] abbreviates: source organism: Influenza A virus(A/swine/Shandong/fNY/2003(H9N2)).
The mark [31] stands for this setting: source organism: Influenza A virus (A/Swine/Italy/25823/94(H3N2)).
Setting [32] is: source organism: Yellow fever virus 17D.

Consider ATAQNRRAL, for which the Kd – broadly, a measure of binding affinity in units of concentration – with HLA-C*14:02 (setting [25]) is 273 nM; in the assay with HLA-B*51:01 (setting [25]) it was at least 20000 nM; with HLA-B*07:02 [1] (setting [25]) it was 22.7 nM.
In the case of DTITNVTTM, the Kd was 1650 nM in the assay with HLA-C*14:02 (source organism: West Nile virus) and at most 1 nM with HLA-A*26:02 [2] (source organism: West Nile virus strain PTRoxo).
With LLRRRPYPL, the Kd in the assay with HLA-A*02:06 was 2040 nM; with HLA-A*30:01 [3], 440 nM; with HLA-A*02:01 [4], 105 nM; with HLA-B*39:01 [5], at least 20000 nM; with HLA-A*02:03 it was 2.1 nM; in the assay with HLA-B*07:02 [6] it was 206 nM. In addition, the Kd with HLA-B*15:17 [7] was at least 20000 nM; with HLA-A*31:01 [8], at least 20000 nM; with HLA-A*02:11, at most 1 nM; with HLA-A*68:02 [9], at least 20000 nM; with HLA-B*08:01 (setting [26]), 3 nM; with HLA-B*18:01 [10] it was at least 20000 nM. The Kd in the assay with HLA-A*26:02 [2] (setting [26]), with HLA-A*69:01 (setting [26]), in the assay with HLA-A*11:01 [11], with HLA-B*57:01 [12] (setting [26]), with HLA-A*01:01 (setting [26]) and with HLA-A*26:03 (setting [26]) was at least 20000 nM throughout. The Kd in the assay with HLA-B*58:01 (setting [26]) was at least 20000 nM.
As for RYPGVMYAF, the Kd with HLA-A*31:01 [13] (setting [27]) is 122 nM; in the assay with HLA-A*68:02 [14] (setting [27]), at least 20000 nM; in the assay with HLA-B*18:01 [15] (setting [27]), 989 nM; with HLA-B*15:01 [16], 3620 nM; in the assay with HLA-A*26:02 [17] (setting [27]) it was 4760 nM; with HLA-A*11:01 [18] (setting [27]) it was 4300 nM. Also, the Kd with HLA-C*15:02 was at least 20000 nM; with HLA-C*14:02 (setting [27]), 16 nM; with HLA-B*15:09 (source organism: Variola virus) it was at least 20000 nM; with HLA-A*30:01 [19], 4000 nM; in the assay with HLA-B*08:03 (source organism: Variola virus) it was at least 20000 nM; in the assay with HLA-A*69:01 (setting [28]) it was at least 20000 nM. The Kd with HLA-B*57:01 [12] (setting [28]), with HLA-A*02:01 [20] (setting [28]), in the assay with HLA-A*01:01 (setting [28]), in the assay with HLA-A*26:01, with HLA-A*26:03 (source organism: Variola virus) and in the assay with HLA-B*39:01 [21] was at least 20000 nM in each case. Also, the Kd with HLA-B*58:01 (setting [28]) was at least 20000 nM; with HLA-A*24:03 (setting [28]), 2 nM; in the assay with HLA-B*07:02 [1] (setting [28]), at least 20000 nM.
Regarding SFSFGGFTF, the Kd in the assay with HLA-B*15:17 [22] is 40 nM; with HLA-A*31:01 [13] (setting [29]), at least 20000 nM; with HLA-A*68:02 [14] (setting [29]), 2440 nM; with HLA-B*18:01 [15] (setting [29]) it was 200 nM; with HLA-A*26:02 [17] (setting [29]), 1840 nM; with HLA-A*11:01 [18] (setting [29]), at least 20000 nM. Moreover, the Kd with HLA-B*57:01 [23] is 2360 nM; in the assay with HLA-B*35:01, 285 nM; with HLA-B*15:09 (setting [30]) it was at least 20000 nM; with HLA-A*03:01, at least 20000 nM; with HLA-B*27:05 it was at least 20000 nM; with HLA-B*08:03 (setting [30]), at least 20000 nM. Besides, the Kd is at least 20000 nM with HLA-B*08:01 (setting [30]); 37.5 nM with HLA-B*15:01 [24] (setting [31]); at least 20000 nM with HLA-B*08:02; at least 20000 nM in the assay with HLA-A*02:01 [20] (setting [31]); at least 20000 nM with HLA-A*01:01 (setting [31]); 62.5 nM in the assay with HLA-B*58:01 (setting [31]). Also, the Kd with HLA-A*24:03 (setting [31]) is at most 1 nM; in the assay with HLA-B*07:02 [1] (setting [31]) it was at least 20000 nM.
As for SVAMCRTPF, the results for the Kd with HLA-B*51:01 (setting [32]) and in the assay with HLA-B*15:01 [24] (setting [32]) were at least 20000 nM and 32 nM, respectively.
